The record followed here is patent US20130011406A1 (KOLLTAN PHARMACEUTICALS, published 2013).

For test [1], the target named is T1, recombinant D5 domain polypeptide of human KIT (N410 to H515, with His tag) (human, UniProt P10721 26-519).
T1 construct: also called D5 domain of human KIT
Briefly: solid phase ELISA, polypeptide coated on plate. (In general: ELISA stands for enzyme-linked immunosorbent assay.)

The target in test [2] is T2, recombinant D4 domain polypeptide of human KIT (V308 to K412, with His tag) (human, UniProt P10721 26-412).
T2 construct: also called D4 domain of human KIT
As to the kind of experiment: solid phase ELISA, polypeptide coated on plate.

For test [3], the target named is T3, recombinant KIT D4/D5 polypeptide (D4/D5 region of human KIT, V308 to H515, with 5xHis tag) (human, UniProt P10721 26-519).
T3 construct: also called recombinant antigen; recombinant IG domain four and five of the extracellular region of KIT
Briefly: solid phase ELISA, D4/D5 polypeptide coated on plate. The procedure:
(§1) Coating plates with antigen: Recombinant antigen containing the D4/D5 region of the KIT extracellular Ig-like region (see FIG. 2A) were absorbed to 96-well microtiter plates. 10 μg of recombinant antigen (i.e., D4/D5 region of KIT) were diluted into 10 mL of borate buffer, and 100 μL of the antigen solution were added to each well of a 96 well plate. The 96 well plate was covered with a plate sealer, was incubated at 4° C. overnight, and then stored at −80° C. until the day of the assay.
ELISA: The plate with the absorbed antigen was removed from the −80° C. freezer and was allowed to thaw at room temperature. The borate buffer was removed by flicking the plate into the sink and blotting the plate dry. 200 μL of the blocking buffer were added to each well and allowed to incubate at room temperature for one hour. The blocking buffer was removed, again by flicking the plate into the sink. Then, the diluted solution of test antibodies and controls (were added to the plate in a volume of 50 μL and incubated at room temperature for one hour. The antibody solutions were removed, and the plate was washed four times with 300 μL of wash buffer with five minute incubations. After the last wash, the plate was blotted dry. The diluted secondary antibody solution was added to each well in a volume of 100 μL and allowed to incubate for one hour at room temperature. The diluted secondary antibody solution was removed, and the plate was washed four times with 300 μL of wash buffer with five minute incubations. The plate was then blotted dry, and freshly mixed substrate solution was added to each well in a volume of 100 μL and was allowed to incubate at room temperature for 30 minutes. Subsequently, 100 μL of 2NH₂SO₄ were added to each well and immediately read on the plate reader. An irrelevant antibody served as the negative control, and an anti-KIT antibody against the D4 and/or D5 domain of the extracellular region of KIT served as the positive control. OD values for each sample were obtained at a wavelength of 450 nm.

Test [4] concerns the target T2, recombinant D4 domain polypeptide of …. As to the kind of experiment: solid phase ELISA, D4 polypeptide coated on plate.
Test [5] concerns the target full-length, wild-type human KIT (human, UniProt P10721 26-976). Briefly: cell-based or functional assay.
Test [6] has as its target T3, recombinant KIT D4/D5 polypeptide …. Briefly: solid phase ELISA, recombinant D4/D5 region coated on plate, full-length human IgG1. The protocol:
Serial antibody dilutions were prepared as follows. A starting antibody concentration of 300 nM (or lower depending on sample) was diluted down 1:3 in dilution buffer. Specifically, 200 μl of the starting concentration (top row of dilution plate) was prepared, and 75 μl was diluted into 150 μl in the row below. The dilution was mixed, and the dilution step was repeated down the plate. From the dilution plate, 100 μl was transferred to the assay plate.
The binding assays were carried out as follows. The plate coated with antigen (i.e., recombinant D4/D5 region of KIT) were removed from the −80° C. freezer and were allowed to warm to room temperature. The borate buffer was removed by flicking the plate into the sink and blotting it dry. 200 μL of the blocking buffer (1% BSA/TBS) was added and incubated at room temperature for one hour. The blocking buffer was then removed by flicking the plate into the sink, and blotting dry. Then, the serially diluted antibodies and controls were added to the plate in a volume of 100 μL, and the plate was sealed and incubated at room temperature for one hour.

The target is the same in test [7]. As to the kind of experiment: solid phase ELISA, D4/D5 antigen coated on plate, Fab; concentration at 50% binding. The procedure:
as §1
ELISA: The plate with the absorbed antigen was removed from the −80° C. freezer and was allowed to thaw at room temperature. The borate buffer was removed by flicking the plate into the sink and blotting the plate dry. 200 μL of the blocking buffer were added to each well and allowed to incubate at room temperature for one hour. The blocking buffer was removed, again by flicking the plate into the sink. […] Subsequently, 100 μL of 2NH₂SO₄ were added to each well and immediately read on the plate reader. […]

Where only a bound is given, the exact number is not on record here.

What is called EC50 is the midpoint of the concentration-response curve.

T1 sequence (P10721 other isoform, or with tags, fused parts or gaps limits assumed): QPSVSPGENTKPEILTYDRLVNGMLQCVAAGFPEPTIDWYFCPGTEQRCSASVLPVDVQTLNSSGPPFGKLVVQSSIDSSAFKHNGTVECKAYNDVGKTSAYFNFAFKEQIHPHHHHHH
T3 sequence (P10721 other isoform, or with tags, fused parts or gaps limits assumed): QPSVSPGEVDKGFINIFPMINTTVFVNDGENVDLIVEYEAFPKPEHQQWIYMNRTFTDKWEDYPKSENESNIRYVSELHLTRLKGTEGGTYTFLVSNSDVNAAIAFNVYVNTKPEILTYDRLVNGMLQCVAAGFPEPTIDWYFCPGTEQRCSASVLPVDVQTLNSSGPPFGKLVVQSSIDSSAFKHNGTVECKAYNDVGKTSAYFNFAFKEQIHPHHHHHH
T2 sequence (P10721 other isoform, or with tags, fused parts or gaps limits assumed): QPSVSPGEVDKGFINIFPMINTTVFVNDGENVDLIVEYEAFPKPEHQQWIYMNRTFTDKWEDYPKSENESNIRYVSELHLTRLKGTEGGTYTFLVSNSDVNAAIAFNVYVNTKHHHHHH
full-length, wild-type human KIT, sequence (P10721 other isoform, or with tags, fused parts or gaps limits assumed): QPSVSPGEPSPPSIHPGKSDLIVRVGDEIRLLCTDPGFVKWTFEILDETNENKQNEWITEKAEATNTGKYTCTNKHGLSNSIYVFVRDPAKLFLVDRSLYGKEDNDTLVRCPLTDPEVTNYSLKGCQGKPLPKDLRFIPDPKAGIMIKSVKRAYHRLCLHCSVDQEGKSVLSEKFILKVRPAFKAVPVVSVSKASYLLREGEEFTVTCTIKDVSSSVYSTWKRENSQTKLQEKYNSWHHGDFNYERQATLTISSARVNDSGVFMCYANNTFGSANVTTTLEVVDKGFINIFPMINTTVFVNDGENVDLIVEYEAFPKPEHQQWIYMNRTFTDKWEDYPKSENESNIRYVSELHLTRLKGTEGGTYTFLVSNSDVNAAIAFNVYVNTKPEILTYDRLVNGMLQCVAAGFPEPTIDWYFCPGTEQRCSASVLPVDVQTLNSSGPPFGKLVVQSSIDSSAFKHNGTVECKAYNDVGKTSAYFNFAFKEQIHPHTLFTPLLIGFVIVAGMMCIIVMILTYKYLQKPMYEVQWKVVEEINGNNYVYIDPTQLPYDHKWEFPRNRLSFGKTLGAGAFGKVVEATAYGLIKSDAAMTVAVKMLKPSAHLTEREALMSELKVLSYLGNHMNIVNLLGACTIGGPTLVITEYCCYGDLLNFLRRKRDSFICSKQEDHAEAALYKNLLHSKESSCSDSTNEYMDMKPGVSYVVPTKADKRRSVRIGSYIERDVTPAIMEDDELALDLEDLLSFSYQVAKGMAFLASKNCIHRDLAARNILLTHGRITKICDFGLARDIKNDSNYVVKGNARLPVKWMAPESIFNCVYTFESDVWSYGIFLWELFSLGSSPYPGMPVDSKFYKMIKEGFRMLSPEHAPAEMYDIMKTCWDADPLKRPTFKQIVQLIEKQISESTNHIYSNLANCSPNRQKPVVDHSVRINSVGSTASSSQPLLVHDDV

B1: Fab antibody Ab14 (Fab, V domains shown)
VH: EVQLLESGGGLVQPGGSLRLSCAASGFTFSRYAMWWVRQAPGKGLEWVSYIYSSGGQTGYADSVKGRFTISRDNSKNTLYLQMNSLRAEDTAVYYCARGGVTFDLWGRGTLVTVSS
VL: DIQMTQSPATLSVSPGERATLSCRASQGVSTYLAWYQQKPGQAPRLLIYGASTRATGIPARFSGSGSGTDFTLTINSLELEDFAVYYCQQRRSWPPTFGQGTKVEIK
notes: Fab from a phage library
B1: the values for the binding result in test [1], in test [2] and in test [3] were “no binding”, “no binding” and “binds”, respectively.

B2: Fab antibody Ab20 (Fab, V domains shown)
VH: EVQLLESGGGLVQPGGSLRLSCAASGFTFSRYGMAWVRQAPGKGLEWVSSIRPSGGYTAYADSVKGRFTISRDNSKNTLYLQMNSLRAEDTAVYYCARLPARFDYYYGLDVWGQGTTVTVSS
VL: DIQMTQSPATLSLSPGERATLSCRASQSVNIYLAWYQQRPGQAPRLLIYDASNRAIGVPARFSGTGSGTDFTLTISSLEPEDSAVYYCQQRDSWPPRLSFGGGTKVEIK
notes: Fab from a phage library
As for B2, the binding result in test [4] is given as “binds”.

B3: Fab antibody Ab3 (Fab, V domains shown)
VH: EVQLLESGGGLVQPGGSLRLSCAASGFTFSPYNMMWVRQAPGKGLEWVSRISPSGGDTHYADSVKGRFTISRDNSKNTLYLQMNSLRAEDTAVYYCARGSRSSWSTPYYWGQGILVTVSS
VL: QSALTQPPSASGTPGQRVTISCSGSSSNIGNNYVYWYQQLPGTAPKLLIYRSNQRPSGVPDRFSGSKSGASASLAISGLRSEDEADYYCAAWDDSLIGPVFGGGTKLTVL
notes: Fab from a phage library
As for B3, the binding result in test [4] is reported as “binds”.

B4: Fab antibody Ab18 (Fab, V domains shown)
VH: EVQLLESGGGLVQPGGSLRLSCAASGFTFSWYAMWWVRQAPGKGLEWVSYISSSGGATRYADSVKGRFTISRDNSKNTLYLQMNSLRAEDTAVYYCATVLQYGAFDIWGQGTMVTVSS
VL: QSALTQPPSTSGTPGQRVTISCSGSSSNIGSNYVYWYQQLPGTAPKVLIYRNNKRPSGVPDRFSGSKSGTSASLAISGLRSEDEADYYCAAWDDSLNGVIFGGGTRLTVL
notes: Fab from a phage library
In the case of B4, the binding result is “no binding” in test [1], “no binding” in test [2] and “binds” in test [3].

B5: Fab antibody Ab2 (Fab, V domains shown)
VH: EVQLLESGGGLVQPGGSLRLSCAASGFTFSNYKMGWVRQAPGKGLEWVSWIYPSGGGTFQADSVKGRFTISRDNSKNTLYLQMNSLRAEDTAVYYCARVRVGSTGNFDYWGQGTLVTVSS
VL: DIQMTQSPATLSLSPGERATLYCRASQSVSNYVAWYQQRPGQAPRLLMYDTSKRATGIPARFSGSGSGTDFTLTISSLEPEDFAVYYCQQRSYWFAFGGGTKVEIK
notes: Fab from a phage library
B5: in test [4], the binding result is on record as “binds”.

B6: full-length human IgG1 antibody Ab1 (antibody, V domains shown)
VH: EVQLLESGGGLVQPGGSLRLSCAASGFTFSNYLMSWVRQAPGKGLEWVSSIVPSGGFTHYADSVKGRFTISRDNSKNTLYLQMNSLRAEDTAVYYCARLQTGSWRVHAFDIWGQGTMVTVSS
VL: DIQMTQSPTSLSAFVGDRVTITCQASQDIGNYLNWYQQKSGEPPKLLVYDASFLKKGVPSRFSGSGSGTQYFLTIYSLQPEDFATYFCQHSDNLSVTFGGGTKVEVKR
notes: also called human monoclonal Ab1
Regarding B6, in test [5], the “50% inhibition concentration (IC50) of tyrosine phosphorylation of the cytoplasmic domain of KIT (cell-based phospho-KIT assay)” value turned out to be 2.2 nM. In test [6], the EC50 amounted to 0.171 nM.

B7: full-length human IgG1 antibody Ab21 (antibody, V domains shown)
VH: EVQLLESGGGLVQPGGSLRLSCAASGFTFSNYLMSWVRQAPGKGLEWVSSIVPSGGFTHYADSVKGRFTISRDNSKNTLYLQMNSLRAEDTAVYYCARLQTGSWRVHAFDIWGQGTMVTVSS
VL: DIQMTQSPTSLSAFVGDRVTITCQASQDIGNYLNWYQQKSGEPPKLLVYDASFLKKGVPSRFSGSGSGTQYFLTIYSLQPEDFATYFCQHSDSLSVTFGGGTKVEVKR
notes: Derived from Ab1 by changing the N in VL CDR3 to S to remove a glycosylation site; also called human monoclonal Ab21
Take B7: the “50% inhibition concentration (IC50) of tyrosine phosphorylation of the cytoplasmic domain of KIT (cell-based phospho-KIT assay)” value in test [5] amounted to 1.3 nM. For the same molecule, the EC50 in test [6] came out at 0.156 nM.

B8: Fab antibody Ab15 (Fab, V domains shown)
VH: EVQLLESGGGLVQPGGSLRLSCAASGFTFSNYTMMWVRQAPGKGLEWVSGIRPSGGGTMYADSVKGRFTISRDNSKNTLYLQMNSLRAEDTAVYYCASVVNHKFDNWGQGTLVTVSS
VL: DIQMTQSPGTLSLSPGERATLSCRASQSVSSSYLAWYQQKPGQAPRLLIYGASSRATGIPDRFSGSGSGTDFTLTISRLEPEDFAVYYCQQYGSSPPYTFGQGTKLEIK
notes: Fab from a phage library
As for B8, the figures for the binding result in test [1], in test [2] and in test [3] were “no binding”, “no binding” and “binds”, respectively.

B9: Fab antibody Ab13 (Fab, V domains shown)
VH: EVQLLESGGGLVQPGGSLRLSCAASGFTFSNYTMHWVRQAPGKGLEWVSVIYPSGGMTKYADSVKGRFTISRDNSKNTLYLQMNSLRAEDTAVYYCARGSTTFDYWGQGTLVTVSS
VL: DIQMTQSPGTLSLSPGERATLSCRASQSVRSNYLAWYQQKPGQAPRLLIYGASSRATGIPDRFSGSGSGTDFTLTISRLEPEDFAVYYCQQRSNWPITFGQGTRLEIK
notes: Fab from a phage library
For the molecule B9, the binding result in test [4] is recorded as “binds”.

B10: Fab antibody Ab16 (Fab, V domains shown)
VH: EVQLLESGGGLVQPGGSLRLSCAASGFTFSQYVMFWVRQAPGKGLEWVSSIYPSGGHTLYADSVKGRFTISRDNSKNTLYLQMNSLRAEDTAVYYCAKHARGYNRGYFDSWGRGTLVTVSS
VL: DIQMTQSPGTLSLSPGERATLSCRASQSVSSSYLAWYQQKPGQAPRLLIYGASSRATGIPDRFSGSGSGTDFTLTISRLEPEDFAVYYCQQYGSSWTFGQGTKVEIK
notes: Fab from a phage library
For B10, the binding result is “no binding” in test [1], “no binding” in test [2] and “binds” in test [3].

B11: Fab antibody Ab11 (Fab, V domains shown)
VH: EVQLLESGGGLVQPGGSLRLSCAASGFTFSNYRMMWVRQAPGKGLEWVSGIYPSGGGTFYADSVKGRFTISRDNSKNTLYLQMNSLRAEDTAVYYCARKKMATFAAFDIWGQGTMVTVSS
VL: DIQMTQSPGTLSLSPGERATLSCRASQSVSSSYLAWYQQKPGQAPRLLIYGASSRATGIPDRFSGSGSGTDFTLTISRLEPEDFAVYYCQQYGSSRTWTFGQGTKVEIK
notes: Fab from a phage library
For B11, the EC50 in test [7] was ≤ 300 nM.

B12: Fab antibody Ab12 (Fab, V domains shown)
VH: EVQLLESGGGLVQPGGSLRLSCAASGFTFSFYKMHWVRQAPGKGLEWVSGIWPSGGYTEYADSVKGRFTISRDNSKNTLYLQMNSLRAEDTAVYYCARSSGYHIDYWGQGTLVTVSS
VL: DIQMTQSPGTLSLSPGERATLYCRASQSVKSNYLAWYQQKPGQAPRLLIYGASTRATDIPDRFSGSGSGTDFTLTISRLEPEDFAVYYCQQYGSSLSYTFGQGTKLEIK
notes: Fab from a phage library
Turning to B12, in test [7], the EC50 was ≤ 300 nM.

B13: Fab antibody Ab4 (Fab, V domains shown)
VH: EVQLLESGGGLVQPGGSLRLSCAASGFTFSWYWMYWVRQAPGKGLEWVSGIYPSGGFTSYADSVKGRFTISRDNSKNTLYLQMNSLRAEDTAVYYCARSYYYGSGSYYNSASFDYWGQGTLVTVSS
VL: DIQMTQSPSSLSASVGDRVAITCRASQSIDTYLNWYQQKPGKAPKLLIYAASKLEDGVPSRFSGSGTGTDFTLTIRSLQPEDFASYFCQQSYSSPGITFGPGTKVEIK
notes: Fab from a phage library
Turning to B13, the binding result in test [1] is listed as “no binding”; in test [2], “no binding”; in test [3] it was “binds”.

B14: Fab antibody Ab17 (Fab, V domains shown)
VH: EVQLLESGGGLVQPGGSLRLSCAASGFTFSNYTMIWVRQAPGKGLEWVSRIWPSGGGTDYADSVKGRFTISRDNSKNTLYLQMNSLRAEDTATYYCARRVGASRYFDLWGRGTLVTVSS
VL: DIQMTQSPSSLSASVGDRVTVTCRASQNIDNYLNWYQQRPGKAPELLIYAASSLQSGVPSRFSGSGSGTDFTLTISSLQPEDFATYYCQQSYSNSRTFGQGTKVEIK
notes: Fab from a phage library
Take B14: the binding result in test [4] was “binds”.
